The record followed here is patent publication EP4772193A1 (Teijin Pharma Limited, dated 2026).

Read-outs that look alike come from different tables or passages of the source.

As usually defined, the EC50 is the concentration that produces a half-maximal response. A word on the Kd: it is the concentration at which binding is half-saturated. What is called koff is the rate constant with which the complex falls apart. What is called kon is the second-order rate constant of association.

For assay [1], the target named is T1, recombinant human soluble gpNMB (recombinant human gpNMB-FLAG-His) (human, UniProt Q14956 23-498).
T1 sequence: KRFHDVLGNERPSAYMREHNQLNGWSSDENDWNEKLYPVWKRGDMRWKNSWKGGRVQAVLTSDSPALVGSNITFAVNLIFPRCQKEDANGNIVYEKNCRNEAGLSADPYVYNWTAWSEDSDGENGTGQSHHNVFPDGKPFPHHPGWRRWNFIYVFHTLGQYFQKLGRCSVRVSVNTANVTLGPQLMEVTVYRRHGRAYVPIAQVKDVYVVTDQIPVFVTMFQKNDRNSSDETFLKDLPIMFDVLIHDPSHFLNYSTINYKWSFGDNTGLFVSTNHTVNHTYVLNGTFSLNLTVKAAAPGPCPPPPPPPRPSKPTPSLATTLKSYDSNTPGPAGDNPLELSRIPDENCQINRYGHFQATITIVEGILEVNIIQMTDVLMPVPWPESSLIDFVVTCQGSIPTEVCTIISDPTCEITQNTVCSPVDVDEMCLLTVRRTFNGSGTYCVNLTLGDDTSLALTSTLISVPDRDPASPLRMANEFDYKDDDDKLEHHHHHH
Kind of assay: antigen ELISA. A general note: In an ELISA, binding on a coated surface is turned into a signal by an enzyme label.

Assay [2] deals with T1, recombinant human soluble gpNMB …. Kind of assay: SPR, antibody over captured gpNMB-FLAG-His, 1:1 model.
The target is the same in assay [3]. Kind of assay: antigen ELISA. The source holds these as a separate data set.
The target is the same in assay [4]. The assay is described as follows: antigen ELISA, vs hGPN06-1_H1L1.
Assay [5] shares this target. The assay is described as follows: antigen ELISA. The source holds these as a separate data set.
Assay [6] has the same target. The assay is described as follows: antigen ELISA, vs hGPN06-1_H1L1. This is another data set of the same source.
The target is the same in assay [7]. The assay is described as follows: antigen ELISA, vs hGPN06-1_H1L1. This is another data set of the same source.
For assay [8] the target is unchanged. The assay is described as follows: antigen ELISA. This is another data set of the same source.

B1: hGPN06-1_H0L0 (antibody, V domains shown)
VH: QVQLQQPGAEIVRPGASVKLSCKASGYTFTDNWMGWVKQRPGQGLEWIGAIDPSDSFTNYNQNFKGKATLTVDTSSSTAYMQLSSLTSEDSAVYFCTRSGYYGSPKLGGDYWGQGTTLTVSS
VL: QIVLTQSPAIMSASLGEEITLTCSASSSISYMHWYQQKSGTSPKLLIYSTSNLASGVPSRFSGSGSGTFYSLTISSVEAEDAADYYCHQWNSYPCTFGGGTKLEIK
notes: human chimeric antibody: mouse GPN06-1 variable regions (VH0, VL0); also called human chimeric antibody of GPN06-1
For the molecule B1, the EC50 in assay [1] was 0.383 nM. Further, in assay [2], the dissociation constant (Kd) is 0.265 nM, the koff turned out to be 0.000209 s⁻¹ and the kon was found to be 789000 M⁻¹ s⁻¹.

B2: hGPN06-1_H1L1 (antibody, V domains shown)
VH: QVQLVQSGAEVKKPGASVKVSCKASGYTFTDNWMGWVKQRPGQGLEWIGAIDPSDSFTNYNQNFKGRVTMTVDTSISTAYMELSRLRSDDSAVYFCTRSGYYGSPKLGGDYWGQGTLVTVSS
VL: EIVLTQSPSSLSASVGDRVTITCSASSSISYMHWYQQKSGTAPKLLIYSTSNLASGVPSRFSGSGSGTDFTFTISSLQPEDAATYYCHQWNSYPCTFGGGTKLEIK
notes: humanized; also called humanized anti-gpNMB antibody H1L1
With B2, the EC50 is 0.575 nM in assay [1], 1.98 nM in assay [3], 1.98 nM in assay [5] and 1.98 nM in assay [8]. For the same molecule, the Kd in assay [2] turned out to be 0.62 nM. For the same molecule, the off-rate (koff) in assay [2] was 0.000567 s⁻¹. Also, the kon in assay [2] stood at 916000 M⁻¹ s⁻¹. For the same molecule, the Relative binding activity in assay [4], in assay [6] and in assay [7] was 1 in each case.
